Results reported in IntAct's records for PubMed 31653868.

B1: Protein PIGBOS1 (Homo sapiens), A0A0B4J2F0 (parent)
chain: MFRRLTFAQLLFATVLGIAGGVYIFQPVFEQYAKDQKELKEKMQLVQESEEKKS
partner: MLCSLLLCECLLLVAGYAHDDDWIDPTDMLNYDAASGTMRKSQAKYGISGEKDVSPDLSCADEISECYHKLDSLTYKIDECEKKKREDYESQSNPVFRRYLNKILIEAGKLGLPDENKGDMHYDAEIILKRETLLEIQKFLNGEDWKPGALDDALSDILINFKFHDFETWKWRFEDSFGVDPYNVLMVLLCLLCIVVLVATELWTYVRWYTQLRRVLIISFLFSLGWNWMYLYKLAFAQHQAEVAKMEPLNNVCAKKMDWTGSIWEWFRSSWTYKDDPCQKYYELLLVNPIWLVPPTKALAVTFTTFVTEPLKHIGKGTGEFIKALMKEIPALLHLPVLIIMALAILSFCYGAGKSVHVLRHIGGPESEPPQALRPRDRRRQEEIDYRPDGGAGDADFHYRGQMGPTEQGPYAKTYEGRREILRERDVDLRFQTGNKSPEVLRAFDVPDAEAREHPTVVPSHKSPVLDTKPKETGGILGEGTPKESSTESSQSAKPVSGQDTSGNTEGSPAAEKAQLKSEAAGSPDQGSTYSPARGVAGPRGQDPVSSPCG

Variants of: B1
Conditions: with clcc1_human CLCC1, Q96S66

Row | effect of a mutation on the interaction | Variant
1 | with no effect | MFRRLTFAQLLFATVLGIAGGVYIFQPVFEQYAKDQAAAKEKMQLVQESEEKKS [K37A;E38A;L39A]
2 | with no effect | MFRRLTFAQLLFATVLGIAGGVYIFQPVFEQYAKDQKELKEKMQLVQEAAAKKS [S49A;E50A;E51A]
3 | with no effect | MFRRLTFAQLLFATVLGIAGGVYIFQPVFEQYAKDQKELKEKAAAVQESEEKKS [M43A;Q44A;L45A]
4 | decreasing interaction strength | MFRRLTFAQLLFATVLGIAGGVYIFQPVFEQYAAAAKELKEKMQLVQESEEKKS [K34A;D35A;Q36A]
5 | with no effect | MFRRLTFAQLLFATVLGIAGGVYIFQPVFEQYAKDQKELKEKMQLVQESEEAAA [K52A;K53A;S54A]
6 | disrupting interaction strength | MFRRLTFAQLLFATVLGIAGGVYIFQPVFAAAAKDQKELKEKMQLVQESEEKKS [E30A;Q31A;Y32A]
7 | with no effect | MFRRLTFAQLLFATVLGIAGGVYIFQPVFEQYAKDQKELKEKMQLAAASEEKKS [V46A;Q47A;E48A]
8 | with no effect | MFRRLTFAQLLFATVLGIAGGVYIFQPVFEQYAKDQKELAAAMQLVQESEEKKS [K40A;E41A;K42A]
